Target: T1, Cynomolgus monkey ROBO2 overexpressed on HEK293 cells (cynomolgus monkey, UniProt Q9HCK4 22-1378 (human entry))
T1 chain: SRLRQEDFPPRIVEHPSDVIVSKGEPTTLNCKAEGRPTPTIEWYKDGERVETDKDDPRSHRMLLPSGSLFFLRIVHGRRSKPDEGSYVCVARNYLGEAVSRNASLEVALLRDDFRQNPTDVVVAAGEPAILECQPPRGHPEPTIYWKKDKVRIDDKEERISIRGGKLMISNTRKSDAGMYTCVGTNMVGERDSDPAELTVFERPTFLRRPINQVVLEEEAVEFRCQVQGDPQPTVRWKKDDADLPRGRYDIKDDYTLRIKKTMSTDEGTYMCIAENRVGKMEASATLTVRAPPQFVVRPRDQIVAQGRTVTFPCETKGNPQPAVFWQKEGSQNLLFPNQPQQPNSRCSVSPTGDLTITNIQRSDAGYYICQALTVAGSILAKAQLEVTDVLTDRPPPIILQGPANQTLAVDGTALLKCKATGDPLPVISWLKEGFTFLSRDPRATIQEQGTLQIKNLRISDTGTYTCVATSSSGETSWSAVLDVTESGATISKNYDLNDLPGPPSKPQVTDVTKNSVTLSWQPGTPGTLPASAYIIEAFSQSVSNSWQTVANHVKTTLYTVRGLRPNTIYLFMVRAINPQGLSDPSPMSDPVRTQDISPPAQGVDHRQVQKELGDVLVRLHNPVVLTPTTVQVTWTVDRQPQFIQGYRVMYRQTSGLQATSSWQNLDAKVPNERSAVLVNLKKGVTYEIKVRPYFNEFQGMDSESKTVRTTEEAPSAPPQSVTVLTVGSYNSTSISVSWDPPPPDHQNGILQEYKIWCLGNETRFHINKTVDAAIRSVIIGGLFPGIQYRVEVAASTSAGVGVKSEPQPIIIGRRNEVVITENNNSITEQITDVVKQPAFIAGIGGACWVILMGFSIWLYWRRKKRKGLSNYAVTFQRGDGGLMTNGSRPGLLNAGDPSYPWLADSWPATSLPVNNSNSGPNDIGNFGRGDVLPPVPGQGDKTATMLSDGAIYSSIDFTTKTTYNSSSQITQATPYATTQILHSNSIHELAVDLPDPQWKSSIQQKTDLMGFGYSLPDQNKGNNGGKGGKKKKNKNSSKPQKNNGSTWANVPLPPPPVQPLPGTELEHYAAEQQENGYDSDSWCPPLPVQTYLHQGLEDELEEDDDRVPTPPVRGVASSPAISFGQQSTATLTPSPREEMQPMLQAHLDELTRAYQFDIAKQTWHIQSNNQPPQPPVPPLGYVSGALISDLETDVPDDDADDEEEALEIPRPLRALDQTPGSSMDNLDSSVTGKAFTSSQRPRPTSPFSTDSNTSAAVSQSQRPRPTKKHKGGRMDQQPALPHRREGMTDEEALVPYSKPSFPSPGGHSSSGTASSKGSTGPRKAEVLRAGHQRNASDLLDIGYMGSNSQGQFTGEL
Test: flow cytometry, HEK293 cells, average of n = 3
Procedure: Binding of the antibodies was detected using a secondary fluorochrome conjugated anti-human IgG F(ab′)₂ antibody and samples were analyzed on a Fortessa cytometer (BD Biosciences). The fold ROBO2 selectivity was calculated as the geometric mean fluorescence intensity (Geo MFI) with ROBO2 cells/Geo MFI with ROBO1 cells. A fold change higher than 3 was considered to be ROBO2 specific (Table 2, Fold Selectivity). Some affinity matured clones had increased ROBO1 reactivity, for example Abcs 55, CTI-R2-10 and CTIR2-13.
Based upon several criteria, Abcs25 and Abcs35 were selected for further characterization. Using flow cytometry, improvement in the binding EC₅₀ to human ROBO2 relative to the parental 93H2 was evaluated. Starting at 6.7 nM, 11-point, 3-fold dilution series were made for each antibody and used to stain HEK293 overexpressing human ROBO2 as described above for the ROBO2 fold selectivity (Example 2). […] In addition to measuring improved binding to human ROBO2, it was important to ensure that high affinity binding to both cynomolgus monkey ROBO2 and rat ROBO2 was maintained. Using HEK293 cells overexpressing either cynomolgus monkey ROBO2 or rat ROBO2, the relative dose-dependent binding of 93H2, Abcs25 and Abcs35 was evaluated as described above. High affinity binding to both cynomolgus monkey and rat ROBO2 was maintained in Abcs25 and Abcs35 (Table 4). […] Briefly, Abcs35 was immobilized to 300 resonance units (RU) on a CM5 chip. Association of ROBO2 Ig1-Ig2-His (ROBO2) was measured over 5 minutes and dissociation was followed for a period of 10 minutes.

B1: 93H2 (antibody, human IgG1, kappa, V domains shown)
VH: EVQLVQSGAEVKKPGASVKVSCKASGYTFTGYYMHWVRQAPGQGLEWMGWINPNSGATNFPQKFQGRVTMTRDTSITTAYMDLSRLRSDDTAVYYCARESGDDAFDIWGQGTMVTVSS
VL: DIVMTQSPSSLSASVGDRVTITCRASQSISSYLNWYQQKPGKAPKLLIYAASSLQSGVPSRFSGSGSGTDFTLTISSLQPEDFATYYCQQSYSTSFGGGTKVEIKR
notes: also called parental 93H2; 93H2 mAb
- EC50: 0.316 nM

B2: Abcs25 (antibody, human IgG1, kappa, V domains shown)
VH: EVQLVQSGAEVKKPGASVKVSCKASGYTFTGYYMHWVRQAPGQGLEWMGWINPKDGDTEFPQKFQGRVTMTRDTSITTAYMDLSRLRSDDTAVYYCARESGDDAFDIWGQGTMVTVSS
VL: DIVMTQSPSSLSASVGDRVTITCRASQSISSYLNWYQQKPGKAPKLLIYAASSLQSGVPSRFSGSGSGTDFTLTISSLQPEDFATYYCQQSVGLSFGGGTKVEIKR
notes: chain-shuffled IgG
- EC50: 0.128 nM

B3: Abcs35 (antibody, human IgG1, kappa)
heavy: EVQLVQSGAEVKKPGASVKVSCKASGYTFTGYYMHWVRQAPGQGLEWMGWINPKNGDTEFPQKFQGRVTMTRDTSITTAYMDLSRLRSDDTAVYYCARESGDDAFDIWGQGTMVTVSSASTKGPSVFPLAPSSKSTSGGTAALGCLVKDYFPEPVTVSWNSGALTSGVHTFPAVLQSSGLYSLSSVVTVPSSSLGTQTYICNVNHKPSNTKVDKKVEPKSCDKTHTCPPCPAPEAAGAPSVFLFPPKPKDTLMISRTPEVTCVVVDVSHEDPEVKFNWYVDGVEVHNAKTKPREEQYNSTYRVVSVLTVLHQDWLNGKEYKCKVSNKALPAPIEKTISKAKGQPREPQVYTLPPSREEMTKNQVSLTCLVKGFYPSDIAVEWESNGQPENNYKTTPPVLDSDGSFFLYSKLTVDKSRWQQGNVFSCSVMHEALHNHYTQKSLSLSPGK
light: DIVMTQSPSSLSASVGDRVTITCRASQSISSYLNWYQQKPGKAPKLLIYAASSLQSGVPSRFSGSGSGTDFTLTISSLQPEDFATYYCQQSVGLFFGGGTKVEIKRTVAAPSVFIFPPSDEQLKSGTASVVCLLNNFYPREAKVQWKVDNALQSGNSQESVTEQDSKDSTYSLSSTLTLSKADYEKHKVYACEVTHQGLSSPVTKSFNRGEC
notes: fully human IgG1; VH of Ab96 with VL of Ab123
- EC50: 0.145 nM

From US20200157212A1 (Pfizer, published 2020)
